Measured values as given in patent publication US20240254195A1 (35PHARMA, published 2024).

T1: BMP-9 (UniProt Q9UK05 320-429)
T1 sequence (looked up): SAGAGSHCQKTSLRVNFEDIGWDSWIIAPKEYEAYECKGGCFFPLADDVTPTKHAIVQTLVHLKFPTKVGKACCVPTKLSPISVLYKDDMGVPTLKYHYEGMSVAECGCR

T2: BMP-10 (UniProt O95393 317-424)
T2 sequence (looked up): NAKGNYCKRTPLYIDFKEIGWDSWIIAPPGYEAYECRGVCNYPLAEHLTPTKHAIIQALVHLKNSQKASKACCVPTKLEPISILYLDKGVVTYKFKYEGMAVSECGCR

T3: recombinant human activin A (human, UniProt P08476 311-426)
T3 sequence (looked up): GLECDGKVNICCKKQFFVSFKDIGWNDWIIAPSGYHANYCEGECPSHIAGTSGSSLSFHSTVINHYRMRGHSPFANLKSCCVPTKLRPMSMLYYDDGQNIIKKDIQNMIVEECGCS

T4: GDF-8 (UniProt O14793 267-375)
T4 sequence (looked up): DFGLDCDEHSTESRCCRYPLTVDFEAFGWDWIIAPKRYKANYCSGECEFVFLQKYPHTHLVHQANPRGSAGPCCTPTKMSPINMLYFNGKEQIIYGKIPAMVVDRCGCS

T5: GDF-11 (UniProt O95390 299-407)
T5 sequence (looked up): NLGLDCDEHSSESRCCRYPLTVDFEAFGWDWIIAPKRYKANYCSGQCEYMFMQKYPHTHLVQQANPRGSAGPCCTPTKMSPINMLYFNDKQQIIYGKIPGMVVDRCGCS

T6: activin B (UniProt P09529 293-407)
T6 sequence (looked up): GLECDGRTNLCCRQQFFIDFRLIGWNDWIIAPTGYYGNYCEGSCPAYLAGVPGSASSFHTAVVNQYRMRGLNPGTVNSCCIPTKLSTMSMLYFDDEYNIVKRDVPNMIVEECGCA


How the values were obtained:
Assay in all cases: cell-based or functional assay
BMP-9 = target: T1, BMP-9
BMP-10 = target: T2, BMP-10
[1] = target: T3, recombinant human activin A
GDF-8 = target: T4, GDF-8
GDF-11 = target: T5, GDF-11
activin B = target: T6, activin B

Binder	BMP-9 IC50 (BMP-9)	BMP-10 IC50 (BMP-10)	Activin A IC50 [1]	GDF-8 IC50 (GDF-8)	GDF-11 IC50 (GDF-11)	Activin B IC50 (activin B)
P1375 (Fc fusion) ETRECIYYNANWELERTNQSGLERCEGEQDKRWHCYASWRNSSGTIELVKKGCWLDDFNCYDRQECVATEENPQVYFCCCEGNFCNERFTHLPEAGGPEVTYEPPPTGGGGSGGGGSGGGGSGGGGTHTCPPCPAPELLGGPSVFLFPPKPKDTLYITREPEVTCVVVDVSHEDPEVKFNWYVDGVEVHNAKTKPREEQYNSTYRVVSVLTVLHQDWLNGKEYKCKVSNKALPAPIEKTISKAKGQPREPQVYTLPPSRDELTKNQVSLTCLVKGFYPSDIAVEWESNGQPENNYKTTPPVLDSDGSFFLYSKLTVDKSRWQQGNVFSCSVMHEALHNHYTQKSLSLSPG	> 1000 nM	> 100 nM	0.53 nM	0.33 nM	0.39 nM	2 nM
P1372 (Fc fusion) ETRECIYYNANWELERTNQSGLERCEGEQDKRWHCYASWRNSSGTIELVKKGCWLDDFNCYDRQECVATEENPQVYFCCCEGNFCNERFTHLPEAGGPEVTYEPPPTGGGGSGGGGSGGGGTHTCPPCPAPELLGGPSVFLFPPKPKDTLYITREPEVTCVVVDVSHEDPEVKFNWYVDGVEVHNAKTKPREEQYNSTYRVVSVLTVLHQDWLNGKEYKCKVSNKALPAPIEKTISKAKGQPREPQVYTLPPSRDELTKNQVSLTCLVKGFYPSDIAVEWESNGQPENNYKTTPPVLDSDGSFFLYSKLTVDKSRWQQGNVFSCSVMHEALHNHYTQKSLSLSPG	> 1000 nM	> 100 nM	0.56 nM	0.18 nM	0.53 nM	2 nM
